By Kd is commonly meant the concentration at which binding is half-saturated. Read a low Kd as tighter binding. In general, koff refers to the rate constant with which the complex falls apart. A high value points to a short-lived complex. As a reminder, the kon is the rate constant with which the complex forms. Lower therefore signals slow association.

The target of this assay is T1, Human CD4-Fc (human, UniProt P01730 26-390).
T1 construct: not shown: Fc
Put plainly: BLI; human CD4-Fc captured; binder-mouse Fc homodimer at 125 nM.

B1: Binder 279 expressed as homodimer with mouse Fc (Fc fusion)
chain: QVQLVQSGAEVKKPGASVKVSCKASGGTFSSYAISWVRQAPGQGLEWMGWINPNSGGTNYAQKFQGRVTMTRDTSTSTVYMELSSLRSEDTAVYYCARDGYSGSYSDWGQGTLVTVSSGGGGSGGGGSGGGGSDIVMTQSPDSLAVSLGERATINCKSSQSVLSSSYNKNYLAWYQQKPGQPPKLLIYWASTRESGVPDRFSGSGSGTDFTLTISSLQAEDVAVYYCQQYYSTPWTFGQGTKVEIK
notes: not shown: mouse Fc
In turn, B1 displayed a Kd of 5 nM, a koff of 0.00021 s⁻¹ and a kon of 41700 M⁻¹ s⁻¹.

(Values after US20250281536A1 (published 2025).)
